{"source": "the DeepSol protein solubility set", "data": [{"test": "soluble on expression in E. coli; label from the status in PepcDB or PDB records", "values": [{"sequence": "IVKASTYMGKRRIGALISMERETGMTDYVETGIPMNANLTSELLINTFIPNTPLHDGAVIINNDTILAAACYLPLSENPFISKELGTRHRAALGVSEVTDCLTIVVSEETGHISLTKNGE", "soluble on expression in E. coli": "soluble"}, {"sequence": "MNKAYYIGLMSGTSMDGVDAVLVDFAGEQPQLIGTHTETIPTHLLKGLQRLCLPGTDEINRLGRLDRSVGKLFALAVNNLLAKTKIAKDEIIAIGSHGQTVRHMPNLEVGFTLQIGDPNTIATETGIDVIADFRRKDIALGGQGAPLVPAFHQQTFAQVGKKRVILNIGGIANITYLPGNSEEVLGFDTGPGNTLIDAWVQQVKNESYDKNGAWAASGKTDPQLLAQLLSHPYFSLAYPKSTGRELFNQAWLEQQLSAFNQLNEEDIQSTLLDLTCHSIAQDILKLAQEGELFVCGGGAFNAELMQRLAALLPGYRIDTTSALGVDPKWAEGIAFAWLAMRYQLGLPANLPAVTGASREAILGGRFSAK", "soluble on expression in E. coli": "soluble"}, {"sequence": "MSLISIVVLYYSRHGSTQALARQIARGVESVEGCQALLRTVAELDGTASNSDPYLSLDELKQCDGLALGSPVWFGNMAAPLKHFWDQTTPLWLSGALIDKPACVFTSSSTLHGGQETTQQSMMLPLLHHGMLILGIPYSEPALHTTQSGGTPYGASHVHQQKTLSSEEAELARQLGKRLAHVAKQLKGEGGSHHHHHH", "soluble on expression in E. coli": "soluble"}, {"sequence": "SLQNNQPVEFNHAINYVNKIKNRFQGQPDIYKAFLEILHTYQKEQRNAKEAGGNYTPALTEQEVYAQVARLFKNQEDLLSEFGQFLPDA", "soluble on expression in E. coli": "soluble"}, {"sequence": "MKMKSLFVAMITFFSAAPFAHWQPIGNAEYTWGPFHVYTIGLFSETGTYQENERPLMLSFKYEKPIEGKNFAITLIKEIETLKLNDGDTQSWLKEMQATFPDFSPNDILNYIALPDRGYFVLNDTVLEHDFDAKFNQAFIGIWLAPNSTFVKLQPQLLGKTKSNHEATEFYLKPEIESFDEQDSTPELPPNYLLDSQKKSQG", "soluble on expression in E. coli": "not soluble"}, {"sequence": "GIRSLDGQEDEFDANEQEEIEAKRECALRGRVSVAITPAQSREHGQGDQHGGDRSTHTDDPQAGPWHSAAPAQLSDSIRTCIDAIVDRYVTRRDADPVAKRHALAAALVELRAVGVSHPAVAPLTATIWRLMREHLRAYDKATAAENLLALRTRLLELMPSELEPVPALRNFHLLLPLILLNAEKPRRRVDRTHAITRLNTLLIEQPQQAAQEVRP", "soluble on expression in E. coli": "not soluble"}, {"sequence": "MGHHHHHHGGHMSLAQNDHETVDMLLVGAGIMSATLAVLLKELDPNLKMEVVELQESGAIESSNPWNNAGTGHAGLCELNYTPQSADGSIDIKKAVGINTMFEVSKQLWSHLVAKGTFGSPKTFINPVPHLSFVRGSEGIAYLKKRFESLTKHHAFETMVYSEDKATLAEWMPLMMPGRPADEAIAATRVEGGTDVNFGALTNQLLQHLAQQPGAQIRYNQKVTHLRRADNGWRVTVKDTRNGGDREIQARFVFLGAGGGALPLLQLSGIPEGKGFGGFPVSGQWLRCDNPEIVKQHQAKVYSQAEVGSPPMSVPHLDTRVVDGKKSLLFGPYAGFSTKFLRHGSFLDLPLSVRPGNILPMLSVARDNMDLTRYLIGQVMQSPEQRLEALRKFYPEARAEDWRLEVAGQRVQIIKKDPKKGGILQFGTELVAAHDGSIAALLGASPGASVTVSIMLGLIERCFPEQARSPEWSAKLKEIFPAREKELESDAELYRSVSSRCSEVLELTAKNDVQAEGGS", "soluble on expression in E. coli": "soluble"}, {"sequence": "MTRPPLPPFTAETAAEKVRLAENGWNNRSADVVTPAYSDDSRWRNRAEFVTGHDDIHAFLTRKWDKELDYRLIKELWAWSGNRIAVRYAYEWHDDSGNWFRSYGNENWEFDEDGRMSARHTSLNDLPITEDERLFHWPLGPRPDGHPGLTDLGLLEHHHHHH", "soluble on expression in E. coli": "not soluble"}, {"sequence": "MGSDKIHHHHHHMSKLFDCITDELQDFIAAQHLFFVGSAPLSPTGHVNLSPKGLGCFRVLSPKQVGYVDLTGSGNETSAHLQENGRITFMFCAFEEPACILRLYGQGNTILPSSPDWDSLYSLFLPMPGTRQIIVADIEKVQTSCGFGVPLYEYQGQRQTLVNWASKKGEEGVREYQQKKNLVSIDGLPTPLSKLS", "soluble on expression in E. coli": "not soluble"}]}]}
